# A protein production outcome set (Wang et al. 2014)
# Test: label from the status in PepcDB records
row,Sequence,protein production
1,MGVDNFSTTKKMFTWEVPGERVITLMTAGNLATTQALISLLEERSKTPSERSPSILERPTMFEVARLVGATLKEVIADTAGTGQVASSQFKASVIVGGQVKGGLPTLFLIYPEGNFIEVTEDSPFFQIGEAKYGKPILVRAYDPDLSFEDTIRLLMVSFDSTIKANLSVGLPLDLQVYANDSFAIKEQSRVEADDAYFQSISERWGDALRKALSDLPPYKSLLEHHHHHH,failed
2,MGVIVPGNSSPVPALSAGRSTVEGYDPKLHDPFFDGVSQQLADKGFITAAADDLITWARTGSLMWMTFGLACCAVEMMQASMPRYDLERYGFAPRASPRQSDVMIVAGTLTNKMAPALRKVYDQMPEPRYVISMGSCANGGGYYYYSYSVVRGCDRVVPVDIYVPGCPPTAEALVYGVLQLQKKIRRTGTIER,failed
3,MGVLHALREEEGAARARFEEALTHDAGHYRARMNIGNLDLEAGRLPEAEAAYREVLKLAPEYDGAHHNLGVALRRQGKLYESVGSIRKAQRLGVSGARAAAKEDMQEQLRLNPHLRWIRAAIFIGVLLLLGVLLWLNRGRA,failed
4,MGVLRPAAPITGTPNTRLTPVRRRLPTAEAKPTPRFNTPTNKLPEQMSSESPRNPLLDTWTETSSHMFNSVVAANRAAFAAFGVQQEEENGVTPAERIEPDEDLPEWHVSISEEHPGRLGVGDHVDFTKTISEHDVQQFAAASGDTNPLHLDDEFAEQTRFRGRIAHGTLVGSLISAALARLPGLTIYLSQDLEFHNPVRIGDRLTAECEIVEDLGDEQYRLTTRVLADDEVVIDGEAVVLIDDLPE,failed
5,MGVNMRAETESRIFSVDEYVRPSNGEPIRSVVLETNDSVVVVWHAHPGQEIASHVHPHGQDTWTVISGEAEYHQGNGIVTHLKAGDIAIAKPGQVHGAMNSGPEPFIFVSVVAPGNAGFALAEK,not failed
6,MGVPEPRPDWSRRLLGQGEAPDPRFTLANERTFLAWVRTALALLGGAIAIETFAGHVLETPLRLWLVAGLMLLSALLSAGACLRWLRVERALRRRRPLPLPALVPLLALGCLVAVLLAGLVLWPRWHG,failed
7,MGVQSAVRVHRAISEIGQDAWDACAASTGDPFVSYDFLSILEESGCVAARTGWAPQHLTVLDEADQVAGVMPLYLKSHSQGEYVFDHSWADAYERAGGRYYPKLQCSSPFSPVTGSRLIVRPDIDAAEGRSALMGGALTLCERMGASSLHVTFPVEDQWRWMGERGMLLRQDQQYHWENRGYETFDDFLGALSANRRKTIRRERRDAQEGLEIVALTGADLTEDHWDAFFAFYMDTGGRKWGRPYLNRPFFSLLGQRMADKVLLILARRPGGPFIAGALNLLGRDCLYGRHWGCVEDAPFLHFELCYYQAIEHAIRLGLPRVEAGAQGQHKIARGYLPSAVYSAHWIADPMLREPVARYLERERAAVESDMEMLTEEYSPFREER,failed
8,MGWCVMAVLVDSETRVLVQGITGREGSFHAKAMLEYGTKVVAGVTPGKGGSEVHGVPVYDSVKEALAEHPEINTSIVFVPAPFAPDAVYEAVDAGIRLVVVITEGIPVHDTMRFVNYARQKGATIIGPNCPGAITPGQAKVGIMPGHIFKEGGVAVVSRSGTLTYEISYMLTRQGIGQSTVIGIGGDPIVGLSFTEALKLFQEDPQTEALVLIGEIGGDMEERAAEMIKKGEFTKPVIAYIAGRTAPPEKRMGHAGAIIMMGTGTYEGKVKALREAGVEVAETPFEVPELVRKALRR,not failed
9,MGWLFLLLAVASEAFSHVALKATDGLSHLIPNVIVITGHLGAFYFLSQAMKTLPVGIAHASWAGLAIIAVTLISSAFYHQHLDNKIWLGIGFISIGIAIINLSSTPHVH,failed
10,MGYCQDDQLVNKICDLYEKISKLETLKPCEDVDTLFKQLVSTCIPPNPNIDVTKMSENIQEMRSNLIKICGEAEGYLEHHFSSILTSFEDNPLHHLNLFPYYNNYLKLSKLEFDLLEQNLNGFVPRTVAFIGSGPLPLTSVVLASSHLKDSIFHNFDIDPSANMVAARLVSSDPDLSQRMFFHTVDIMDVTESLKGFDVVFLAALVGMDKKEKVKVVEHLEKHMSPGALLMLRSAHGPRAFLYPIVEPCDLEGFEVLSVYHPTDEVINSIVISRKLGEDANGVVHDHIDQASDLACNCSKIHVIMNKKKSIIEEFAGANEEQLT,failed
11,MGYGKILVALDRSELAKEVLQQAIALGQKESSQLMVFYCIPVDSQDLSIYPSFYGEAAIGFSQIIKEHLEEQQTEAREWLQSIVQQVQEDGVACEWDVKVGEPGRWIRDMAKNWDADLVVLGRRGLKGLAEVFLGSVSSYVIHHVQCSVLIVQH,failed
12,MGYKDEIGVIGIDDAPFNKFDKEALIVGTYMRGNKLVDEISFKKIEKDGFDSTEKILKIVKDKHFTKINAIFLDGVTFGGFNIADIVKIYNETKIPVIAVMEKEPDLLKMKSALKKYFFDFPEKIEMLESFPKPEPFENIFIQCIGISFEDACKLIKKTRLRSKIPECLRISHLVGRGFLNME,failed
13,MGYSGKPHHQLDGEIRESTDGKKWVIAGIPSRSPLKQINLSPGVTVTETEEQDQCPTTPTAVSVRIPRVPPCPAAPKKRKPSLKCSYVTVTRDYFSPPDLETVFIQRASY,failed
14,MGYTLAEFLAHAIALETEAAERYVELADMMEAHNNLDTATVFRDMARFSTLHGDEIKQRSRALELPKLMSWQYRWKTPPEVGDENDIHYLMTPYHALRYARDNEIRGMEYYKEAAANSADPEVKRLGADFAAEEAEHVVALDKWIEKTPRPSITWSEDADPAQCVD,not failed
15,MHAELYRTRKRWYESAWPGAGFWRGANDTLPVTNYITYPANFDQPDGQSLTPLTMAAMMGNVKFVKTLLSHYDVDLDRECNVIYDGMVVYGATALWVAAGMGHLQIVKMLVQAGAAINHNTKAQSSPLRAACYEGRLDIVEFLIDNGADVNATNLFNNNTLMIAAYKGHHLVVKTLLQNGSRANDQALCGATALHYAAESGHLDVVVALLDHGATLKKNELGITPALQAAERLHEDVLEAFIERPELMSLEEQITALELLGATYANDKIKYDVNKAYGYLLRAMQLRYSNPRGVIRKRVQPTVPAYDNWLETENLPELYAIKLNHHSIHMESLAIRERILGRNNPELPQAIIYRGAVMADQGRFYQCQVLWNYAIDLRMRNNVSVDRDLLRFAQLFAQILRVENHNLTLDHVLPVLAKCQQEIENNKFKIKEAKPNACPSLWQDQNNQNCITALYLIKIVTHLARRKKDQNIDEEHIQQLFLVVRKFIQNDTRLQDGQTLLHIAVNGVMPVDEFYTNEMCRFPCYATALVLVHCGASVVAVDSDRNTPLHILVTKVNTTQDRQAEMARILELFVEAGAHLDAVNAAGQTAATACKLPILANRLHAHQNAHTSLKCLAARSIATNRLNFKGLIPTQLEAFIQMHSVRKVLP,failed
16,MHAFPLTLDNRLAEALPLWRNLARTDRAPRRNIDLADWKADWRELIAALDRFSRSHGYRQPFAAQGHAALENAWAWGQAAENASTLLLKAIDRGLAGAELRSIYLETAALWLDYSRLLGAARDSLREQGEVDFETAPALAPRTGQYPFALQLLAMGVLLDAQELIPALVEEVLQFDTDRLLDYLGAAALGLTSASEETFHPRPFGQLRAFFEEADGSDAQALAPYLQSQYREFFQLSPKAQKKTRRLTGPYAWGWWAMEVSALGVLYGWDDGVLRASPHYLGDLVDYARARGDA,not failed
17,MHCDDVMLPAALHRESCPAPEGVVTVADTTRNASGHARPRISIIIPAWNIAPWIGQTLRSILSQTVDDFECIVIDDGSTDGTAQVVASVADPRIRCIRQPNAGVSAARNRGIAEAQGAFITFLDGDDYWLPCFLETLLPPLLTRPEVDLVYCGMTMFMDDDGTVKPQPWGNVHATGNVWWDMLSDSVMLMGAWLARAEVVKGCRPFDPTLRVGEDRDFLLSMLEDIYHQRHHEAVGIDARLLRYRQRRGSGVRQVADALQCEWHMMDRHLRHEGIPPAVRRRAYSDLAFKMGVIAAFGARDIALALRWYGKAFALCPMNGNLYWLPLRKMFLSLRPRRRLHMKVLFLSARADFGGGPEHVLQLLRRLPPDVEAAVACPEDVPYWERFRNIVGDDNMFSMPHRAFTLEAVARLRRFCRKRGFDVLHAHGKGAGLYARVLSLLCGIPSVYTFHGVHLGGYGPLKRWLYGAYERAASWCTRRGIAVSRGERDAIEAHGLMPASKVSVIMNGVEMPEGTAPRPAGPPWLVVSFSRFDMQKNSLFLLDVARALQEQGRLDGFRFLLVGDGPDRARLLEQAAAQGLGDRVSCPGATPTPHEAYAGALCYFSSSRWEGMPLAVLEAMAHGLPVVATDVVGNRDAVADGVTGLLYPEGDAGAAARGLVRLADEAALWAAMAHEARAWVATRHDVQRMADRTFHELRKACGRA,failed
18,MHCNDGGPATLGLFSDSDLQQPARVEVLGPQSRVLRGFALPWVEALLPQLDAVLAAAPFRQMQTPGGFTMSVGLSSCGQLGWTTDRSGYRYSPIDPQSQRPWPALPKVFQELAEAAAEAAGFPGFAPDSCLINCYRPGAKMSLHQDKNERDYSAPIVSLSLGLPAIFLFGGRQRSDKSQRVALLHGDVVVWGGVDRLRYHGVLALKDGHHPLLGQQRINLTLRRAGLEHHHHHH,failed
19,MHCRIRNTISCSNYIFSAVWNFLISVFINKTNFNNSVYCRIFKVSIGLRKSISSTTRTRWVPVVFICSRSTNRWTGARSVNPIRNLEHHHHHH,failed
20,MHEIFTMMLAVYDRAALMLICLFFLIRLRLFRELLHKSAHTPKELLAVTAIFSLFALFSTWSGVPVEGSLVNVRIIAVMSGGILFGPWVGAIVGAIAGVHRYLIDIDGVTAVPCFITSIVAGLLSGLINRKVAREQRWKIGILAGMMCETLTMILVVVWAPSLSLGVDIVSKIGIPMILGSVCIGFIVLLVQSVEGEKEASAARQAKLALDIANKTLPLFRHVNSDSLRQVCEIIRRDITADAVAITNTEHVLAYVGVGEANYQRHDDMISPTTRQAIRYGKIIIKNNDEAHRTPEIHSLMVIPLWEKGVVTGTLKIYYCHAHRITSTLQEMAIGLSQIISTQLEVSRAEQLREMANKAELRALQSKINPHFLFNALNAISSSIRLNPDTARQLIFNLSRYLRYNIELKDDEQIDIKRELYQIKDYIAIEQARFGDKLTVIYDIDDDVSCVIPSLLIQPLVENAIVHGIQPCKGKGVVTIGINECGNRVRISVRDTGNGIDPAVVARVEADEMPGNKIGLLNVHHRVKLLYGEGLHIRNLTPGTEIAFYVPNNSTPQALTESLLS,failed
21,MHESMREIAERATFQSFANCYRREIDPGMPSQHRPECGDRRTYVEWSCPMAAATLRAEVERESLCGPFRFGRVFICRAPDNAWHEIAPLRALYLMVQECYSGIGAARAEALRNEEAELLGRVLASYQCIADSLQRSSGEAGRTFLDGEQSLMFGHWLHPTPKSRQGMADWQQPTYAPEHRGQFQLTYFAVDAALLRYGSAGDVSVSGILETLLPEADRPTLRPGEALIPLHPMQAEAVMLSPDIAELAREGRLRRLGPFGAEFSPTSSVRTVYSPAIPWMLKFSLPVRITNSLRINRMPELKAGVAMSRLFARTDFLARHPCFRLIRDPAYLTLGLPGRTESGFEIIFRENPFTTGNETKGITIAALTADPPPHARSRLDVLVREYAAQQGLPVASACRHWFSAYLDCALDPLVRLYNELGVALEAHQQNVLLDVSSGLPTASYYRDNQGFYLSNAHRDRLVSLVPETAEIGGLYFDDHVIQERFAYYLIVNQICSMIARMGQDRLIDEEALLIMLRERLNGLARELAGVGRDFASGIVDRPTVAAKANLLTRMLDIDELEAEDGRAIYVQLPNPLFGDRRSARRGEARAASR,failed
22,MHEWGLSEELKIQTKQMIEIAEKELSIMRNAIDKEDECILCKMEDIHHMLANVQTLAATYYIQAYLSPYTESSSFITTAIQHLSARKHGALIVVERNETLEALIQTGTTLNAHLTAPLLESIFYPGNPLHDGAVLVKNNHIVSAANILPLTKSTEVDPELGTRHRAAIGLSEKSDALILVVSEETGRTSFALNGILYTISL,not failed
